Results from publication PMC11178655, “Dosimetry and pharmacokinetics of [^177Lu]Lu-satoreotide tetraxetan in patients with progressive neuroendocrine tumours” (European Journal of Nuclear Medicine and Molecular Imaging, 2024).
Where a SMILES comes first, the peptide text is derived from it. Bridges are numbered along the chain shown (N, C = ends). [ ]: non-standard residue; d: D form. The star is where a group is joined. DOTA = O=C(O)CN1CCN(CC(=O)O)CCN(CC(=O)*)CCN(CC(=O)O)CC1; dPhe(4-NHCONH2) = NC(=O)Nc1ccc(C[C@@H](N)C(=O)O)cc1; Dihydroorotyl(S) = O=C1C[C@@H](C(=O)*)NC(=O)N1; Phe(4-Cl) = N[C@@H](Cc1ccc(Cl)cc1)C(=O)O; Phe(4-NH2) = Nc1ccc(C[C@H](N)C(=O)O)cc1

What was measured:
[1] = test system: patients with progressive, SSTR-positive NETs; settings: cited from earlier work
Description: Here, we fully explore the biodistribution and dosimetry of [^177Lu]Lu-satoreotide tetraxetan in a dosage-finding, phase I/II study (NCT02592707; registered October 30, 2015) of 40 patients with progressive, SSTR-positive NETs treated with [^177Lu]Lu-satoreotide tetraxetan. A plain language summary of this publication can be found in the Supplementary Information. […] Acute haematological toxicity may be a dose-limiting factor for [^177Lu]Lu-satoreotide tetraxetan, and for ^177Lu-labelled somatostatin analogues in general. There is limited correlation between absorbed radiation doses to the bone marrow and development of haematologic toxicity. Therefore, it is important to carefully monitor hematological parameters during ...

[2] = test system: patients with progressive, SSTR-positive NETs; assay: Model-based organ dosimetry, OLINDA/EXM version 1.0 (part B, first cycle); format: in vivo, human; settings: OLINDA/EXM 1.0, part B, median
Procedure: Patient-specific dosimetry calculations were performed after each treatment cycle in both parts A and B, using the absorbed dose calculation features of the NUKDOS software for image-based dosimetry calculations. The NUKDOS software was chosen as it allowed for an integral approach to organ dosimetry (including image quantification, time-activity curve-fitting and dosimetry calculation). For the bone marrow, both image-based and blood-based calculations were performed in part A [28, 29]. In part B, only image-based bone marrow dosimetry was performed. Organ Level INternal Dose Assessment/EXponential Modelling (OLINDA/EXM) version 1.0 software, the most widely used version at the time of the study, was used to perform model-based dosimetry calculations, which were only performed after the first [^177Lu]Lu-satoreotide tetraxetan cycle for patients in part B. To generate organ-specific absorbed doses, TIACs were used as input data. Full details on OLINDA/EXM software settings and organ-specific TIAC calculation methods are provided in the Supplementary Information.
Patient-specific dosimetry calculations were performed according to European Association of Nuclear Medicine Dosimetry Guidance after each treatment cycle in both parts A and B, using the absorbed dose calculation features of the NUKDOS software (i.e., integration of the time-activity curves, calculation of the absorbed dose). Model-based dosimetry calculations were only performed after the first [^177Lu]Lu-satoreotide tetraxetan cycle and for patients in part B. To generate organ-specific absorbed doses, TIACs were used as input data in the Organ Level INternal Dose Assessment/EXponential Modelling (OLINDA/EXM) software version 1.0, which was granted Food and Drug Administration 510(k) clearance in June 2004. The following settings were applied: ^177Lu isotope, no bladder voiding model, adult male or female phantom. As the OLINDA/EXM software makes no distinction between the right and left kidneys, their TIACs were summed. In case biokinetic data were available for one kidney only, the kidney TIAC value was doubled. For the bone marrow, the patient-specific mass of the analysed vertebrae was used for upscaling image-based TIAC values according to the OLINDA/EXM phantom gender-specific masses (mBone marrow=1,120 g for males and 1,300 g for females):
The kidney, spleen, liver, and bone marrow TIACs were subtracted from the patient’s whole-body TIAC to obtain the TIAC of the remainder of the body.

**Q.** Which “Grade 3/4 kidney toxicity” value ([1]; 40 patients) does the source give for `C[C@@H](O)[C@@H]1NC(=O)[C@H](CCCCN)NC(=O)[C@@H](Cc2ccc(NC(N)=O)cc2)NC(=O)[C@H](Cc2ccc(NC(=O)[C@@H]3CC(=O)NC(=O)N3)cc2)NC(=O)[C@H](NC(=O)[C@H](Cc2ccc(Cl)cc2)NC(=O)CN2CCN(CC(=O)O)CCN(CC(=O)O)CCN(CC(=O)O)CC2)CSSC[C@@H](C(=O)N[C@H](Cc2ccc(O)cc2)C(N)=O)NC1=O` [[^177Lu]Lu-satoreotide tetraxetan, metal not drawn] ({DOTA}-[Phe(4-Cl)][dC][Phe(4-NH2)](Dihydroorotyl(S))[dPhe(4-NHCONH2)]KTC[dY]-NH2; disulfide 2-7 (inferred); C-terminus assumed) here?
**A.** no reported grade 3/4 kidney toxicity

**Q.** And the “Grade 3/4 treatment-related lymphopenia” value ([1]; 40 patients)?
**A.** 7.5 % of patients

**Q.** What about the “Disease control rate at 12 months” value [1] of the same compound?
**A.** 94.7%

**Q.** And the “Calculated absorbed dose for 3 cycles of 4.5 GBq each, Red marrow” value ([2]; N = 18)?
**A.** 1.47 Gy

**Q.** What about the “Calculated absorbed dose for 3 cycles of 4.5 GBq each, Spleen” value ([2]; N = 18) of the same compound?
**A.** 8.78 Gy

**Q.** What about the “Calculated absorbed dose for 3 cycles of 4.5 GBq each, Adrenals” value ([2]; N = 24) of the same compound?
**A.** 1.03 Gy

**Q.** And the “Calculated absorbed dose for 3 cycles of 4.5 GBq each, Brain” value ([2]; N = 24)?
**A.** 0.96 Gy

**Q.** What about the “Calculated absorbed dose for 3 cycles of 4.5 GBq each, Breasts” value ([2]; N = 24) of the same compound?
**A.** 0.95 Gy

**Q.** And the “Calculated absorbed dose for 3 cycles of 4.5 GBq each, Gallbladder wall” value ([2]; N = 24)?
**A.** 1.02 Gy

**Q.** And the “Calculated absorbed dose for 3 cycles of 4.5 GBq each, Heart wall” value ([2]; N = 24)?
**A.** 0.99 Gy

**Q.** And the “Calculated absorbed dose for 3 cycles of 4.5 GBq each, Kidneys” value ([2]; N = 24)?
**A.** 14.18 Gy

**Q.** What about the “Calculated absorbed dose for 3 cycles of 4.5 GBq each, Lungs” value ([2]; N = 24) of the same compound?
**A.** 0.98 Gy

**Q.** And the “Calculated absorbed dose for 3 cycles of 4.5 GBq each, Muscle” value ([2]; N = 24)?
**A.** 0.97 Gy

**Q.** What about the “Calculated absorbed dose for 3 cycles of 4.5 GBq each, Osteogenic cells” value ([2]; N = 24) of the same compound?
**A.** 3.96 Gy

**Q.** What about the “Calculated absorbed dose for 3 cycles of 4.5 GBq each, Ovaries” value ([2]; N = 24) of the same compound?
**A.** 1.00 Gy

**Q.** What about the “Calculated absorbed dose for 3 cycles of 4.5 GBq each, Pancreas” value ([2]; N = 24) of the same compound?
**A.** 1.05 Gy

**Q.** What about the “Calculated absorbed dose for 3 cycles of 4.5 GBq each, Skin” value ([2]; N = 24) of the same compound?
**A.** 0.93 Gy

**Q.** What about the “Calculated absorbed dose for 3 cycles of 4.5 GBq each, Small intestine” value ([2]; N = 24) of the same compound?
**A.** 1.00 Gy

**Q.** And the “Calculated absorbed dose for 3 cycles of 4.5 GBq each, Stomach wall” value ([2]; N = 24)?
**A.** 1.01 Gy

**Q.** And the “Calculated absorbed dose for 3 cycles of 4.5 GBq each, Thymus” value ([2]; N = 24)?
**A.** 0.98 Gy

**Q.** What about the “Calculated absorbed dose for 3 cycles of 4.5 GBq each, Thyroid” value ([2]; N = 24) of the same compound?
**A.** 0.96 Gy

**Q.** And the “Calculated absorbed dose for 3 cycles of 4.5 GBq each, Total body” value ([2]; N = 24)?
**A.** 1.08 Gy

**Q.** And the “Calculated absorbed dose for 3 cycles of 4.5 GBq each, Liver” value ([2]; N = 24, may be an underestimation)?
**A.** 1.07 Gy

**Q.** What about the “Calculated absorbed dose for 3 cycles of 4.5 GBq each, Uterus” value ([2]; female patients N = 11) of the same compound?
**A.** 1.13 Gy

**Q.** And the “Calculated absorbed dose for 3 cycles of 4.5 GBq each, Testes” value ([2]; male patients N = 13)?
**A.** 0.72 Gy

**Q.** And the “Calculated absorbed dose for 3 cycles of 4.5 GBq each, LLI wall” value ([2]; lower large intestine, N = 24)?
**A.** 1.00 Gy

**Q.** What about the “Calculated absorbed dose for 3 cycles of 4.5 GBq each, ULI wall” value ([2]; upper large intestine, N = 24) of the same compound?
**A.** 1.01 Gy

**Q.** And the “Calculated absorbed dose for 3 cycles of 4.5 GBq each, UB wall” value ([2]; urinary bladder, N = 24)?
**A.** 0.99 Gy
